Results as given in article PMC10786891, “Massively parallel profiling of RNA-targeting CRISPR-Cas13d”.
Positions count from the first letter of the chain named. In names and notes the source's numbering stands.

T1: EsCas13d, nuclease-dead (Eubacterium siraeum, UniProt B0MS50, R295A;H300A;R849A;H854A)
T1 sequence: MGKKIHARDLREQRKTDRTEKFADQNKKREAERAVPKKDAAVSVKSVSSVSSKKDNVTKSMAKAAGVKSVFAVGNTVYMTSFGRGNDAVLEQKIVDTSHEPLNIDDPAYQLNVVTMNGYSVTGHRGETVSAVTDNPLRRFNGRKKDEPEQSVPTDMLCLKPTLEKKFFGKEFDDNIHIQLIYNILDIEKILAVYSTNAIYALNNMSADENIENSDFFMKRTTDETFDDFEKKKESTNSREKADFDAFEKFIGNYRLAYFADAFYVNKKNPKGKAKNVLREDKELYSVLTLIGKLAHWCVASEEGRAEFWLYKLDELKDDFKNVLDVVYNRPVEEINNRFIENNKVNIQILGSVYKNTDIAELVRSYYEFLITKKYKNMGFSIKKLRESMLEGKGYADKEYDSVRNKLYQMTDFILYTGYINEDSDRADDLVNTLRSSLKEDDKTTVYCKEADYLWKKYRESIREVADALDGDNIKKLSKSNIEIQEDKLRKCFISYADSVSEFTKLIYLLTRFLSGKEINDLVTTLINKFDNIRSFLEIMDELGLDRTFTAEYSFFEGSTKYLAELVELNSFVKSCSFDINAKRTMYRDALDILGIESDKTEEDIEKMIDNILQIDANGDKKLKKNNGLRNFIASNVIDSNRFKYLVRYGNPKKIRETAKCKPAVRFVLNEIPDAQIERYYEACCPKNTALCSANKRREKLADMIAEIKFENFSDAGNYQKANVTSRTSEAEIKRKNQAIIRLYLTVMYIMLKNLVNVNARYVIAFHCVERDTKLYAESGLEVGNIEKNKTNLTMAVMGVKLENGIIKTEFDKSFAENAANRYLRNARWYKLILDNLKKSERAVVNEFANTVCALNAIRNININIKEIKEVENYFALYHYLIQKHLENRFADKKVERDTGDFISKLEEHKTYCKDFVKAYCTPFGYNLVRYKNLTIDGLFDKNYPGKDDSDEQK

B1: target 1 insC 3' of 18,insU 3' of 15 (mixed)
RNA 1: CACCCGUGCAAAAAUGCAGGGGUCUAAAACUGAGCGGAUAACCUCUCUAUGG
RNA 2: GGGAAUGGAUCCACAUCUACGAAUUCGUACCAUACGAGUAGGUUAUCCGCUCACCGAGAUCGGAAGAGCACACGU
B2: target 1 insG 3' of 22,insU 3' of 4 (mixed)
RNA 1: B1 RNA 1
RNA 2: GGGAAUGGAUCCACAUCUACGAAUUCGUACGCAUAGAGAGGUUAUCCGCUUCACCGAGAUCGGAAGAGCACACGU
B3: target 1 insU 3' of 12,insU 3' of 2 (mixed)
RNA 1: B1 RNA 1
RNA 2: GGGAAUGGAUCCACAUCUACGAAUUCGUACCAUAGAGAGGUUUAUCCGCUCUACCGAGAUCGGAAGAGCACACGU
B4: target 1 G5U,A9C (mixed)
RNA 1: B1 RNA 1
RNA 2: GGGAAUGGAUCCACAUCUACGAAUUCGUACCAUAGAGAGGUUCUCCUCUCACCGAGAUCGGAAGAGCACACGU
B5: target 1 U3C,A14G (mixed)
RNA 1: B1 RNA 1
RNA 2: B4 RNA 2 with A38G, C43A, U47G, U49C
B6: target 1 insC 3' of 5,insG 3' of 2 (mixed)
RNA 1: B1 RNA 1
RNA 2: B3 RNA 2 with U43A, A44U, U45C, C47G, G48C, U52G
B7: target 1 insA 3' of 17,insA 3' of 10 (mixed)
RNA 1: B1 RNA 1
RNA 2: B1 RNA 2 with C35G, G36A, U39A, A40G, G42U, U44A
B8: target 1 C7U,A16C (mixed)
RNA 1: B1 RNA 1
RNA 2: B4 RNA 2 with A36C, C43A, C45U, U47G
B9: target 1 insA 3' of 17,insC 3' of 10 (mixed)
RNA 1: B1 RNA 1
RNA 2: B1 RNA 2 with C35G, G36A, U39A, A40G, G42U, U44C
B10: target 1 insA 3' of 21,insC 3' of 10 (mixed)
RNA 1: B1 RNA 1
RNA 2: B1 RNA 2 with U33A, A34U, C35A, U39A, A40G, G42U, U44C
B11: target 1 C6A,G12C (mixed)
RNA 1: B1 RNA 1
RNA 2: B4 RNA 2 with G40C, C43A, C46A, U47G
B12: target 1 insU 3' of 18 (mixed)
RNA 1: B1 RNA 1
RNA 2: GGGAAUGGAUCCACAUCUACGAAUUCGUACCAUAUGAGAGGUUAUCCGCUCACCGAGAUCGGAAGAGCACACGU
B13: target 1 U8G,U10A (mixed)
RNA 1: B1 RNA 1
RNA 2: B4 RNA 2 with U42A, C43A, U44G, U47G
B14: target 1 insG 3' of 19,insG 3' of 16 (mixed)
RNA 1: B1 RNA 1
RNA 2: B1 RNA 2 with A34G, C35A, U39G
B15: target 1 U8A,A18G (mixed)
RNA 1: B1 RNA 1
RNA 2: B4 RNA 2 with A34G, C43A, U44A, U47G
B16: target 1 insC 3' of 22,insC 3' of 9 (mixed)
RNA 1: B1 RNA 1
RNA 2: B2 RNA 2 with G31C, U45C, C46U, G48C, C49G, U50C
B17: target 1 insA 3' of 21,insC 3' of 15 (mixed)
RNA 1: B1 RNA 1
RNA 2: B1 RNA 2 with U33A, A34U, C35A, U39C
B18: target 1 insG 3' of 21,insA 3' of 21 (mixed)
RNA 1: B1 RNA 1
RNA 2: B1 RNA 2 with A32G, U33A, C35U, G36A, A37G, G38A, U39G
B19: target 1 C4U,G12A (mixed)
RNA 1: B1 RNA 1
RNA 2: B4 RNA 2 with G40A, C43A, U47G, C48U
B20: target 1 insA 3' of 22,insG 3' of 2 (mixed)
RNA 1: B1 RNA 1
RNA 2: B2 RNA 2 with G31A, U51C, C52G
B21: target 1 U8G,A9U (mixed)
RNA 1: B1 RNA 1
RNA 2: B4 RNA 2 with C43U, U44G, U47G
B22: target 1 insA 3' of 7,insU 3' of 2 (mixed)
RNA 1: B1 RNA 1
RNA 2: B3 RNA 2 with U43A, A44U, U45C, C46A
B23: target 1 insA 3' of 22,insA 3' of 11 (mixed)
RNA 1: B1 RNA 1
RNA 2: B2 RNA 2 with G31A, U43A, A44U, U45A, C46U, G48C, C49G, U50C
B24: target 1 insG 3' of 8,insG 3' of 3 (mixed)
RNA 1: B1 RNA 1
RNA 2: B3 RNA 2 with U43A, A44U, U45G, C51G, U52C
B25: target 1 C2U,A9C (mixed)
RNA 1: B1 RNA 1
RNA 2: B4 RNA 2 with U47G, C50U
B26: target 1 A9G,U19A (mixed)
RNA 1: B1 RNA 1
RNA 2: B4 RNA 2 with U33A, C43G, U47G
B27: target 1 insC 3' of 12,insA 3' of 4 (mixed)
RNA 1: B1 RNA 1
RNA 2: B3 RNA 2 with U41C, U50A, C51U, U52C
B28: target 1 U3G,U11G (mixed)
RNA 1: B1 RNA 1
RNA 2: B4 RNA 2 with U41G, C43A, U47G, U49G
B29: target 1 insU 3' of 9 (mixed)
RNA 1: B1 RNA 1
RNA 2: B12 RNA 2 with U35G, G36A, A37G, G38A, A39G, G41U, U43A, A44U
B30: target 1 insC 3' of 22,insU 3' of 18 (mixed)
RNA 1: B1 RNA 1
RNA 2: B1 RNA 2 with A32C, U33A, A34U, C35A, G36U, A37G, G38A, U39G
B31: target 1 C2G,C4G (mixed)
RNA 1: B1 RNA 1
RNA 2: B4 RNA 2 with C43A, U47G, C48G, C50G
B32: target 1 insG 3' of 11,insU 3' of 2 (mixed)
RNA 1: B1 RNA 1
RNA 2: B3 RNA 2 with U42G
B33: target 1 insA 3' of 10 (mixed)
RNA 1: B1 RNA 1
RNA 2: B12 RNA 2 with U35G, G36A, A37G, G38A, A39G, G41U, U43A

Molecular target: T1, EsCas13d, nuclease-dead
Assay: crRNA (strand 1, pre-loaded); Mg2+; 40 mM Tris-HCl pH 7.5, 150 mM NaCl, 6 mM MgCl2, 1 mM DTT, 0.1% Tween-20, 0.2 mg/ml BSA; 25 C; 10 min per concentration, then washed
Details: tags: His6-TwinStrep-SUMO cleaved; N-terminal SNAP kept (SNAP-Surface 488); label: 3' end held by stalled T7 RNA polymerase

Binder	Kd [nM]
B1	82 ± 33
B2	32 ± 5
B3	8.3 ± 0.8
B4	60 ± 6
B5	57 ± 18
B6	10 ± 0.5
B7	19.2 ± 1.7
B8	43 ± 4
B9	27 ± 6
B10	57 ± 8
B11	14.8 ± 0.5
B12	31 ± 3.2
B13	19.7 ± 1.2
B14	97 ± 16
B15	72 ± 16
B16	50 ± 13
B17	55 ± 11

Binder	Kd [nM]
B18	27.3 ± 3.5
B19	23.7 ± 3
B20	12.2 ± 0.9
B21	11.4 ± 0.4
B22	7.5 ± 0.6
B23	17.6 ± 1
B24	7.7 ± 0.4
B25	14.2 ± 0.5
B26	44 ± 5
B27	7 ± 0.7
B28	11.7 ± 0.9
B29	13.1 ± 0.9
B30	38 ± 9
B31	7 ± 0.4
B32	50 ± 9
B33	12 ± 0.5
